From publication PMC4569402
Several values for one entry are separate records, joined by “and”; a condition that tells them apart may be missing. Equal values may be shown once.

What was measured:
[1] = biological target: BNP with deletion of aa 1-38 (BNP-Δ38) (influenza B virus (B/panama/45/1990)); assay: negative-stain electron microscopy
[2] = biological target: BNP with deletion of aa 1-66 (BNP-Δ66) (influenza B virus (B/panama/45/1990)); assay: negative-stain electron microscopy

Row | Substance | stoichiometry N [1] | stoichiometry N [2]
1 | BNP with deletion of aa 1-38 (BNP-Δ38) (domain or fragment) | 4 and 5 | 
2 | BNP with deletion of aa 1-66 (BNP-Δ66) (domain or fragment) |  | 4 and 5
